According to the supplement of paper PMC9732359:
± gives the uncertainty stated by the source.

Experiment: protein stability index of a GFP-peptide fusion (yeast GPS) (PSI 1-4); higher = more stable; sorted into four equal gates, so the index is relative within each strain
How it was run: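 Yeast carrying a pooled library were grown to mid-log phase in leucine-free medium. Each library plasmid expresses Cherry and has a tiled 17-residue yeast protein peptide fused downstream of GFP. Cells were sorted into four equal gates by GFP/Cherry ratio, and plasmids from each gate were PCR-amplified, Illumina-sequenced and assigned to strains by barcode. Summing, across gates, the read frequency times the gate number gave each peptide's protein stability index.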

Row | Sequence | protein stability index (doa10∆) | protein stability index (pdr5∆) | protein stability index (san1∆) | protein stability index (ubr1∆)
1 | IDSQMDEASGTPDEDML [GRR1] | 2.93 ± 0.063 | 2.96 ± 0.065 | 2.85 ± 0.068 | 3.02 ± 0.053
2 | DQLLTDLIETSFTCFAQ [NUT1] | 2.56 ± 0.093 | 1.9 ± 0.076 | 1.88 ± 0.11 | 2.91 ± 0.074
3 | PVRPVRVRHEDVETVKR [RPC53] | 2.9 ± 0.077 | 2.97 ± 0.048 | 2.88 ± 0.055 | 3.04 ± 0.037
4 | NARKVVGASVVVVKNWG [RPS12] | 2.83 ± 0.15 | 2.69 ± 0.13 | 2.12 ± 0.24 | 2.67 ± 0.084
5 | GATYRGKLVESEDSMNV [SMD3] | 3.17 ± 0.084 | 2.73 ± 0.053 | 3.01 ± 0.06 | 3.33 ± 0.055
6 | LIAIVSKLLQTTLKLSP [NUT1] | 2.19 ± 0.042 | 1.39 ± 0.063 | 1.31 ± 0.11 | 1.21 ± 0.066
7 | MKYIQTEQQIEVPEGVT [RPL9A] | 2.54 ± 0.089 | 2.75 ± 0.082 | 2.83 ± 0.11 | 2.77 ± 0.053
8 | AENSHTQPKATSTGTTI [PUP1] | 3.17 ± 0.073 | 3.1 ± 0.071 | 3.07 ± 0.06 | 3.26 ± 0.057
9 | SSVIQNYDIITASSLAH [YML103C/NUP188] | 1.69 ± 0.079 | 1.88 ± 0.066 | 1.98 ± 0.092 | 2.03 ± 0.041
10 | TSPLYMDPGAPLPVETP [SSN2] | 3.09 ± 0.12 | 2.82 ± 0.12 | 2.75 ± 0.17 | 2.81 ± 0.11
11 | GYCDDIAAMVAQKCGWT [SIR2] | 1.76 ± 0.11 | 1.9 ± 0.094 | 2.44 ± 0.16 | 1.74 ± 0.052
12 | IESDSILNLLNILTTHL [ECM29] | 2.39 ± 0.043 | 2.02 ± 0.046 | 1.75 ± 0.049 | 2.32 ± 0.049
13 | IEKLTDGHLRAPLKHGV [BRR2] | 1.72 ± 0.053 | 2.86 ± 0.058 | 3.01 ± 0.051 | 2.04 ± 0.065
14 | LRNNLNSLIEEINERSE [YCG1] | 3.13 ± 0.094 | 3.31 ± 0.095 | 2.96 ± 0.075 | 3.01 ± 0.073
15 | RKRKCGHTNQLRPKKKL [RPL40A] | 2.84 ± 0.035 | 2.95 ± 0.032 | 3.017 ± 0.024 | 3.033 ± 0.026
16 | IQCQIDKLYIHFVQEEP [RGR1] | 2.09 ± 0.093 | 2.55 ± 0.093 | 2.85 ± 0.083 | 3.15 ± 0.095
17 | LYPDSSSFKKNLLKFIT [RPN3] | 1.19 ± 0.075 | 1.26 ± 0.069 | 1.05 ± 0.13 | 1.25 ± 0.18
18 | GSELVQKYVGEGARMVR [RPT1] | 2.57 ± 0.22 | 2.84 ± 0.085 | 3 ± 0.085 | 2.81 ± 0.05
19 | WKYEDVVAKLEDKRKVR [RPL16B] | 3.12 ± 0.064 | 2.32 ± 0.059 | 2.36 ± 0.093 | 2.02 ± 0.045
20 | MKWDFAKDIKGYGTQKI [PRE4] | 2.15 ± 0.064 | 1.85 ± 0.057 | 1.84 ± 0.12 | 1.4 ± 0.048
21 | TSNWEIYKPLLFEIVSN [SRB8] | 1.59 ± 0.062 | 2.05 ± 0.066 | 2.11 ± 0.14 | 1.23 ± 0.08
22 | SDEERDDEDDEHNPTIV [AAR2] | 3.53 ± 0.086 | 3.32 ± 0.089 | 3.09 ± 0.071 | 3.31 ± 0.11
23 | APKWYPSEDVAALKKTR [RPL6A] | 2.5 ± 0.07 | 2.97 ± 0.063 | 2.75 ± 0.049 | 2.53 ± 0.051
24 | ANQSATSTPPPPPAPHN [SNF5] | 2.98 ± 0.041 | 3.03 ± 0.034 | 2.82 ± 0.034 | 3.1 ± 0.032
25 | MKPEVEQELAHILLTEL [FAS2] | 3.006 ± 0.028 | 2.988 ± 0.028 | 2.753 ± 0.025 | 2.722 ± 0.024
26 | NEGVPSPMLSISNLTQE [FAS1] | 2.84 ± 0.055 | 2.94 ± 0.062 | 2.96 ± 0.058 | 3.12 ± 0.059
27 | SQIIPLMKKACYVGLLT [SNU114] | 1.67 ± 0.049 | 1.82 ± 0.06 | 1.75 ± 0.07 | 1.83 ± 0.043

Row | Sequence | protein stability index (doa10∆) | protein stability index (pdr5∆) | protein stability index (san1∆) | protein stability index (ubr1∆)
28 | NRKVRAGRGFTLAEVKA [RPL13A] | 2.84 ± 0.054 | 2.97 ± 0.061 | 2.82 ± 0.043 | 2.48 ± 0.044
29 | AGGEAGEAEAEKEEEEA [RPP1A] |  | 3.47 ± 0.21 | 2.54 ± 0.22 | 3.5 ± 0.18
30 | VFEISENNSDSNSNNNG [SWI1] | 2.89 ± 0.15 | 3.03 ± 0.11 | 3.15 ± 0.12 | 3.28 ± 0.15
31 | NSADAAYAQVEIQPRAN [FAS2] | 2.82 ± 0.054 | 2.76 ± 0.065 | 2.21 ± 0.061 | 2.79 ± 0.048
32 | EDGRTLSDYNIQKESTL [RPS31] | 2.92 ± 0.081 | 3.02 ± 0.066 | 3.05 ± 0.065 | 3.01 ± 0.09
33 | TWYVGNSRGKFDDACNQ [SSN2] | 3.43 ± 0.19 | 3.14 ± 0.12 | 2.9 ± 0.11 | 3.26 ± 0.16
34 | GRSWDGKEHIVAALVSL [ECM29] | 1.88 ± 0.052 | 2.1 ± 0.063 | 1.56 ± 0.082 | 1.65 ± 0.042
35 | MAGLMHFKKPDITVHGE [RRP45] | 2.89 ± 0.19 | 2.14 ± 0.13 | 1.76 ± 0.16 | 1.25 ± 0.092
36 | KTKEAVAALKAVGAHSD [RPL4A] | 3.47 ± 0.087 | 3.51 ± 0.067 | 3.08 ± 0.096 | 3.38 ± 0.062
37 | NQDSVKTYALESINNVV [RPN2] | 3.23 ± 0.1 | 3.21 ± 0.1 | 2.95 ± 0.074 | 3.31 ± 0.058
38 | REMALCRELHNKHLTTL [SSN3] | 1.62 ± 0.037 | 2.04 ± 0.041 | 1.87 ± 0.056 | 1.8 ± 0.038
39 | KDIKANLSSNVNFTEIG [YCS4] | 2.83 ± 0.043 | 2.74 ± 0.051 | 2.77 ± 0.05 | 2.77 ± 0.039
40 | LDAIDDFIQLKQTAAYR [SSN2] |  |  |  | 3.23 ± 0.22
41 | SELQPQNRSLQEHNIQD [SNF2] | 2.81 ± 0.041 | 3.24 ± 0.05 | 3.08 ± 0.04 | 3.09 ± 0.038
42 | AISKKNKSLKYVIHGIE [LIN1] | 2.02 ± 0.058 | 1.84 ± 0.053 | 2.11 ± 0.084 | 1.84 ± 0.04
43 | HPIRVLMASVILDSLPS [YDL116W/NUP84] | 1.7 ± 0.051 | 1.52 ± 0.042 | 1.62 ± 0.056 | 1.62 ± 0.048
44 | NNKKVVGTAIDSILNYA [ECM29] | 2.4 ± 0.21 | 2.75 ± 0.12 |  | 3.06 ± 0.083
45 | EYIELEYRDLYTNSVEL [YMR129W/POM152] | 3.16 ± 0.11 | 3.28 ± 0.096 | 3.27 ± 0.085 | 
46 | KAELEKQKSWVPSYIHV [YIL149C/MLP2] | 2.09 ± 0.052 | 2.33 ± 0.041 | 2.15 ± 0.077 | 2.31 ± 0.035
47 | TNVEDPLAKKQTVRLIK [SIR2] | 2.82 ± 0.077 | 3.08 ± 0.067 | 2.77 ± 0.056 | 2.96 ± 0.06
48 | IPYAAKLLFQELMAMNI [RPB2] | 1.64 ± 0.13 | 1.66 ± 0.098 | 1.64 ± 0.29 | 1.55 ± 0.055
49 | CSNNKNSIKNVPPILII [SSN2] | 2.39 ± 0.16 | 2.28 ± 0.098 | 2.52 ± 0.17 | 1.5 ± 0.085
50 | ILSNVDLAMANSLRRVM [RPB3] | 2.75 ± 0.055 | 2.54 ± 0.047 | 2.66 ± 0.071 | 2.46 ± 0.037
51 | EISAAHNKLNITSDALE [SMC3] | 2.64 ± 0.17 |  | 2.58 ± 0.23 | 
52 | LIESLNTIRQNVTSSGD [YML103C/NUP188] | 1.13 ± 0.064 | 1.27 ± 0.096 | 1.17 ± 0.23 | 1.21 ± 0.081
53 | EKITQISLLCKNFKGIE [PCI8] | 2.41 ± 0.049 | 2.55 ± 0.039 | 2.7 ± 0.037 | 2.5 ± 0.035
